# Experiment: soluble on expression in E. coli; label from the status in PepcDB or PDB records
row,Sequence,soluble on expression in E. coli
1,MTKVQDITRESWILNTFPEWGTWLNEEIEQEVVPADNFAMWWLGNCGIWIKTPGGANVVMDLWSNRGKATKQVKDMVRGHQMANMAGARKLQPNLRAQPMVIDPFMINELDYYLVSHYHSDHIDINTAAAIINNPKLNHVKFVGPYECGEVWKNWGVPKDRIMILKPGDSFEFKDIKITAVESFDRTCLVTLPIQGADAQDGDLAGLAITDDDMARKAVNYIFETPGGTIYHGADSHFSNYFAKHGRDYDIDVVLNNYGENPIGIQDKMTSVDLLRMAENLRAKVVIPVHYDIWSNFMASTDEILELWKMRKERLQYDFHPFIWEVGGKYTYPQDQNRIEYHHPRGFDDCFLEDSNIQFKALL,not soluble
2,MTKVSVVGAAGTVGAAAGYNIALRDIADEVVFVDIPDKEDDTVGQAADTNHGIAYDSNTRVRQGGYEDTAGSDVVVITAGIPRQPGQTRIDLAGDNAPIMEDIQSSLDEHNDDYISLTTSNPVDLLNRHLYEAGDRSREQVIGFGGRLDSARFRYVLSEEFDAPVQNVEGTILGEHGDAQVPVFSKVSVDGTDPEFSGDEKEQLLGDLQESAMDVIERKGATEWGPARGVAHMVEAILHDTGEVLPASVKLEGEFGHEDTAFGVPVSLGSNGVEEIVEWDLDDYEQDLMADAAEKLSDQYDKIS,soluble
3,MTLDDDDYIKQMELQRKAFESQFGSLESMGFEDKTKNIRTEVDTRDSSGDEIDNSDHGSDFKDGTIESSNSSDEDSGNETAEENNQDSKPKTQPKVIRFNGPSDVYVPPSKKTQKLLRSGKTLTQINKKLESTEAKEEKEDETLEAENLQNDLELQQFLRESHLLSAFNNGGSGSTNSGVSLTLQSMGGGNDDGIVYQDDQVIGKARSRTLEMRLNRLSRVNGHQDKINKLEKVPMHIRRGMIDKHVKRIKKYEQEAAEGGIVLSKVKKGQFRKIESTYKKDIERRIGGSIKARDKEKATKRERGLKISSVGRSTRNGLIVSKRDIARISGGERSGKFNGKKKSRR,not soluble
4,MTLPVRKSLHDAVLQASKADTWEQATKEWNEVSFIFNGIGRSNCVCGNAIKYAYELFNGVTGQRLFPIGSDCVRHFHRLSLDQQLEEEEKLLRKVENLTRKAQKKEKIKVNKSNFDERLLKWLWEKGVFKPNRGNQFAPERDYQLFLEVFQGGSWTKAEPKKKARMEEVLEKCIKPFLLGKSDDQLYLVKLGKEKIDYEQELRIQAEKERKKRDKIAKQYADNLVLAMGPAERAYQDYFGFTETLTQEERKWEKILFGKNRAERAIKAKQYQKELEKDQRIASQDPIERKQKQTWILNSYFRELPEEKARFSRLLLEYRKSGEVPFSTEYLSDHLIDFFYKMKAFEFEIAPEQVRDFLKKSLQEDHRSSAQGSWIEGILLNCLKPFLERLVI,not soluble
5,MTLRKILALTCLLLPMMASAHQFETGQRVPPIGITDRGELVLDKDQFSYKTWNSAQLVGKVRVLQHIAGRTSAKEKNATLIEAIKSAKLPHDRYQTTTIVNTDDAIPGSGMFVRSSLESNKKLYPWSQFIVDSNGVALGAWQLDEESSAVVVLDKDGRVQWAKDGALTPEEVQQVMDLLQKLLK,not soluble
6,MTLSRFAYNGQRCPSSHNILDNSKIISEDCRKELTELFHHYYPIEIDPHRTIKEKLPHMVQWWSKAHSLLCQQRIQKVQIAQVVGESTAMLREGYKTFFDTLYQNNIPLFIFSAGIGDILEEIIRQMKVFHPNIHIVSNYMDFSEDGFLKGFKGQLIHTYNKNSSVCENSSYFQQLQNKTNIILLGDSIGDLTMADGVPGVQNILKIGFLNDKVEERRERYMDSYDIVLEKDETLDVVNGLLRHILYQGDCVELQGS,soluble
7,MTLTELRYIVAVAQERHFGRAARRCFVSQPTLSIAIKKLEEELAVSLFDRSSNDIITTEAGERIVAQARKVLEEAELIRHLANEEQNELEGAFKLGLIFTVAPYLLPKLIVSLRRTAPKMPLMLEENYTHTLTESLKRGDVDAIIVAEPFQEPGIVTEPLYDEPFFVIVPKGHSFEELDAVSPRMLGEEQVLLLTEGNCMRDQVLSSCSELAAKQRIQGLTNTLQGSSINTIRHMVASGLAISVLPATALTENDHMLFSIIPFEGTPPSRRVVLAYRRNFVRPKALSAMKAAIMQSQLHGVSFICD,soluble

# Source: the DeepSol protein solubility set
